Assay: soluble on expression in E. coli; label from the status in PepcDB or PDB records

Sequence | soluble on expression in E. coli
SNASKEKREKLEAYQHLFYLLQTNPTYLAKLIFQMPQNKSTKFMDSVIFTLYNYASNQREEYLLLRLFKTALQEEIKSKVDQIQEIVTGNPTVIKMVVSFNRGARGQNALRQILAPVVKEIMDDKSLNIKTDPVDIYKSWVNQMESQTGEASKLPYDVTPEQALAHEEVKTRLDSSIRNMRAVTDKFLSAIVSSVDKIPYGMRFIAKVLKDSLHEKFPDAGEDELLKIIGNLLYYRYMNPAIVAPDAFDIIDLSAGGQLTTDQRRNLGSIAKMLQHAASNKMFLGDNAHLSIINEYLSQSYQKFRRFFQTACDVPELQDKFNVDEYSDLVTLTKPVIYISIGEIINTHTLLLDHQDAIAPEHNDPIHELLDDLGEVPTIESLIGESS | soluble
SNATAFVPALVASGLPNEKFCFEGFLPQKKGRMTKLKSLVDEHRTMVFYESPHRLLKTLTQFAEYFGPERQVSVSREISKIHEETVRGTLSELIEHFTATDPRGEIVIVLAGIDD | soluble
SNATIYRMVDLPVIQPRLCTHARWPAPVYGLLVDPSLPSNPQWQNGRVHVDGTLLGTTPISGSWVSCFAAEAAYEFQSGTGEVATFTLIEQDGSAYVPGDRAAPLGYPDFSGQLEIEVQTETTKTGDKLKVTTFEMILGPTTNADQAPYQGRVFASVTAAASLDLVDGRVRAVPRSIYGFQDTIPEYNDGLLVPLAPPIGPFLPGEVLLRFRTYMRQIDTADAAAEAIDCALPQEFVSWFASNAFTVQSEALLLRYRNTLTGQLLFECKLYNEGYIALSYSGSGPLTFPTDGIFEVVSWVPRLYQLASVGSLATGRMLKQ | soluble
SNDFNWTSVFNLSHNRNKIVSLNGLLDQTIEGTWFIHKVGLPYHTFYVKEFAGVDPLTGSAQYYLNTKNEDGSYNRELTTDAAKAESIPYKTATPKVSGGFTNILNYKWIDLTFTLTYSLGGYSFDKLGTYIENGSSSIYSSRYNLPAYMMNRWQKPGDQTDIPRFVYGEPATSTNSSRYIHSTDHLRLKNFTLGFTLPNQWTQKLMIDKVRVYFSGNNLLTWAKWKQYDPETPVNGEVFCEAPAMRTFSFGAQLSF | not soluble
SNLYTERVLSVHHWNDTLFSFKTTRNPGLRFKTGQFVMIGLEVDGRPLMRAYSIASPNYEEHLEFFSIKVPDGPLTSRLQHLKEGDELMVSRKPTGTLVHDDLLPGKHLYLLSTGTGMAPFLSVIQDPETYERYEKVILVHGVRWVSELAYADFITKVLPEHEYFGDQVKEKLIYYPLVTREPFRNQGRQTDLMRSGKLFEDIGLPPMNPQDDRAMICGSPSMLEETSAVLDSFGLKISPRMGEPGDYLIERAFVEK | soluble
SPVTKCPRKVEPPWKGWDRKAQKNGLRHQVFAVNGDHYVGEWKGNLKHGKGTQVWKKSGAVYEGDWKFGKRDGYGSLSHPDPETGKLRRVYSGWWKGDKKSGYGIQFFGPKEYYEGEWCNNQRSGWGRMYYNNGDIYEGQWQNDKPEGEGMLRLKNGNRYEGIWERGMKNGHGRFFHLDHGQLFEGYWVDNVAKCGTMIDFGRDEAPEPTQFPIPKVEILDPDGVLKEALDKLMKPEEEEG | soluble
SQDEVETEVIIKDIFKQGKICFIPQYQFQSNHMDMVRLTSPEEIALLPKTSWNIHQPGEGDVREEALSTGGLDLIFLPGLGFDKDGNRLGRGKGYYDTYLKRCVQHQEVKPYTMALAFKEQICPQIPVDEHDMKVDEVLYEDSPAS | not soluble
SQFVLQDLQDATLGSLLSSLMQHCDPPQRKYPLEKGTPPPWWPTGNEEWWVKLGLPKSQSPPYRKPHDLKKMWKVGVLTAVINHMLPDIAKIKRHVRQSKCLQDKMTAKESAIWLAVLNQEESLIQQ | soluble
SQGRKPSSKLISFQRKLANETEIQKLNLSQSDYVVRMERVRYADKVPLVYEVASIPENLIKGFEQSEVTEHFFKTLTENGYEIGKSQQTIYARNASERVASHLEVNAGHAILALTQVSYFTDGKPFEYVHGQYVGDRFE | not soluble
SRRLLNDSTGRIYQRVGKEGEKLKEEPQDLDLVWPPRLNSSAEAPQSLHPSSRGVWNELPPQSGQFSGQYGTRSRTFQSQPHPTTSSNGMVVNKHSEGSHGGELPVVNSSAGSNCCTCNCQSTLQAILQELKTMRKLMQIQAVGTQNRQQPPISLICSQRTAVSRKRNKKKKVPPKTVEPLTVKQKPSGSEMEKKSVVASELSALQAAEHTSPEESRVLGFGIVLESPSSDPEVQLAEGFDVFMPKSQLDSILSNYTRSGSLLFRKLVCAFFDDKTLANSLPNGKRKRGLNDNRKGLDQNIVGAIKVFTEKYCTANHVDKLPGPRDWVQILQDQIKLARRRLKRGSEIADSDERLDGIALPPTVV | not soluble
SSAESASQIPKGQVDLLDFIDWSGVECLNQSSSHSLPNALKQGYREDEGLNLESDADEQLLIYIPFNQVIKLHSFAIKGPEEEGPKTVKFFSNKEHMCFSNVNDFPPSDTAELTEENLKGKPVVLKYVKFQNVRSLTIFIEANQSGSEVTKVQKIALYGST | soluble
SSAMGAGPDHLFNLRNNFYLGAYQTAINNSEIANLSPENAVERDCLVFRSYIALGSYQLVISEIDESAATPLQAVKLLAMYLSTPQNKESTISSLKEWLADSTIGNNDTLRLIAGIIFMHEEDYNETLKHTHAGGTMDLYALNVQIFIKMHRAEYAEKQLRVMQQIDEDHTLTQLASAWLNLAVGGSKIQEAYLIFEDFSEKYPMTCLILNGKAVCCMQMGNFDEAETLLLEALNKDAKDPETLANLVVCSLHVGKSSSRHLSQLKLSHPEHILVKRVSSAEDNFERAVQLVA | soluble
SSEAYFPVESGALGPEENFLSLDDILMSQEKLPVRVETPMPRLGAFFLERGAGSEPDHPLPQGTKLELPLWLAKGLFDHKRRILSVELPKMYQEGWRTVFSADANVVDLHKMGPHFYGFGSQLLHFDSPENADISQSLLKTFIGRFRRIMDSSQNSYNEDTSALVARLDETERGLFQIGQRSLNDFQSWEKGQASQITASSLVQNYKKRKFTNMED | soluble
SSPSLLEPLLAMGFPVHTALKALAATGRKTAEEALAWLHDHCNDPSLDDPI | soluble
SSRKSGIGHEASLKRKAEEKLESYRKKIHMKNQAEEKAAEQFRMRLKNKQDEMKLEGDLRRSQRACQQLDVQKNIQVPREAWYWLRLEEETEEDEEEKEQDEDEYKSEDLSVLEKLQILTSYLREEHLYCIWCGTAYEDKEDLSSNCPGPTSADHD | soluble
SSSLKIASTQEARQYFDTDRVVVDAVGSDFTDVGAVIAMDYETDVIDAADATKFGIPVFAVTKDAQAISADELKKIFHIIDLENKFDATVNAREIETAVNNYEDSILPPFFKSLKEYVSRYLIQFDCPGHQGGQYYRKHPAGREFYDFFGETVFRADLCNADVALGDLLIHEGPAVAAEKHAARVYNADKTYFVLGGSSNANNTVTSALVSNGDLVLFDRNNHKSVYNSALAMAGGRPVYLQTNRNPYGFIGGIYDSDFDEKKIRELAAKVDPERAKWKRPFRLAVIQLGTYDGTIYNAHEVVKRIGHLCDYIEFDSAWVGYEQFIPMMRNSSPLLIDDLGPEDPGIIVVQSVHKQQAGFSQTSQIHKKDSHIKGQLRYCDHKHFNNSFNLFMSTSPFYPMYAALDVNAAMQEGEAGRKLWHDLLITTIEARKKLIKAGSMFRPFVPPVVNGKKWEDGDTEDMANNIDYWRFEKGAKWHAYEGYGDNQYYVDPNKFMLTTPGINPETGDYEDFGVPATIVANYLRDHGIIPEKSDLNSILFLMTPAETPAKMNNLITQLLQLQRLIEEDAPLKQVLPSIYAANEERYNGYTIRELCQELHDFYKNNNTFTYQKRLFLREFFPEQGMLPYEARQEFIRNHNKLVPLNKIEGEIALEGALPYPPGVFCVAPGEKWSETAVKYFTILQDGINNFPGFAPEIQGVYFKQEGDKVVAYGEVYDAEVAKNDDRYNN | soluble
SSSLTSENAETKVGVFWDVEECPVPDGVEPSVVCENIKLALEKKGYRPCNVSIRVYGERTNKFKDDFLLADIMFLPAGDEGARFMRMCNDFFCWGNDNRKSTLMVMSRDSTEFASSFVMYKNLNFNILVAQPENVDRKCPVCRKPLEMIITDEWVWESLSAGGDPLPKTQEEPDLSNSCH | soluble
SSVIDKPQVNESAFHRAEPEERESQPETTPQYSPQSVSTTVPERVYQAIDKTPTYPGRTDYEIKPRDRAPSDSSVREARIADSFKRTDWIESKLAPKPNVGKERHAEPAPSKREVHAYHELLKTPDFESQQAEQPTSIESVREVSLPQVTALGKALVVVDEQFVLMSSDSGVALVSLPRSEFYRTKGQLTPSEGALKAQPLLVPLSMKLDTDLVRLAQDYQQDFAQLGIQLKARNDKALMVMGVPAPLRQQNLQNLVPDLLSYAQTWMKGEKASTQMLPALIDWLAVQVTTVKSHYTLSEAIQIIAELEQLRHGQLPLDDKTFVSAVDFSATIAKLKP | not soluble
SSVSGLKAELKFLASIFDKNHERFRIVSWKLDELHCQFLVPQQGSPHSLPPPLTLHCNITESYPSSSPIWFVDSEDPNLTSVLERLEDTKNNNLLRQQLKWLICELCSLYNLPKHLDVEMLDQPLPTGQNGTTEEVTSEEEEEEEEMAEDIEDLDHYEMKEEEPISGKKSEDEGIEKENLAILEKIRKTQRQDHLNGAVSGSVQASDRLMKELRDIYRSQSYKTGIYSVELINDSLYDWHVKLQKVDPDSPLHSDLQILKEKEGIEYILLNFSFKDNFPFDPPFVRVVLPVLSGGYVLGGGALCMELLTKQGWSSAYSIESVIMQINATLVKGKARVQFGANKNQYNLARAQQSYNSIVQIHEKNGWYTPPKEDG | not soluble
STDYGEEQRNELEALESIYPDSFTVLSESPPSFTITVTSEAGENDETVQTTLKFTYSEKYPDETPLYEIFSQENLEDNDVSDILKLLALQAEENLGMVMIFTLVTAVQEKLNEIVDQIKTRREEEKKQKEKEAEEAEKKLFHGTPVTIENFLSWKAKFDAELLEIKKKRMKEEEQAGKNKLSGKQLFETDHNLDTSDIQFLEDAGNNVEVDESLFQEMDDLELEDGEDDPDYNPVAPGSDSSD | soluble
STEESMYTRIIKELPREGSSDVLVIKNEHVKKSDIWPSGGEMVVKDLTVKYMDDGNAVLENISFSISPGQRVGLLGRTGSGKSTLLSAFLRMLNIKGDIEIDGVSWNSVTLQEWRKAFGVITQKVFIFSGTFRQNLDPNGKHKDEEINKVADEVGLKSVIEQFPGQLNFTLVDGGYVLSHGHKQLMCLARSVLSKAKIILLDEPSAHLDPITYQVIRRVLKQAFAGCTVILCEHRIEAMLDCQRFLVIEESNVWQYDSLQALLSEKSIFQQAISSSEKMRFFQGRHSSKHKPRTQITALKEETEEEVQETRL | soluble
STFSKAAPSVPSKPSDCNFISNFYSHSRLHHISMWKCELTEFVNTLQRQSNGIFPGREKLKKMKTGRSALVVTDTGDMSVLNSPRHQSCIMHVDMDCFFVSVGIRNRPDLKGKPVAVTSNRGTGRAPLRPGANPQLEWQYYQNKILKGKAADIPDSSLWENPDSAQANGIDSVLSRAEIASCSYEARQLGIKNGMFFGHAKQLCPNLQAVPYDFHAYKEVAQTLYETLASYTHNIEAVSCDEALVDITEILAETKLTPDEFANAVRMEIKDQTKCAASVGIGSNILLARMATRKAKPDGQYHLKPEEVDDFIRGQLVTNLPGVGHSMESKLASLGIKTCGDLQYMTMAKLQKEFGPKTGQMLYRFCRGLDDRPVRTEKERKSVSAEINYGIRFTQPKEAEAFLLSLSEEIQRRLEATGMKGKRLTLKIMVRKPGAPVETAKFGGHGICDNIARTVTLDQATDNAKIIGKAMLNMFHTMKLNISDMRGVGIHVNQLVPTNLNPST | soluble
